From the DeepSol protein solubility set come the findings set out here.

This data set can be described thus: soluble on expression in E. coli; label from the status in PepcDB or PDB records.
Consider “MRRNGSVPDLNKNDAFRRPPAPKGGVEKRKKGRASGLDGRQKRYVRGAESLGSVLNKEIQRRGWGKDIAGGWVTSNWEELVGAKIAQHTRVEMIKDKKLFITCDSTAWATNLRMMQRQILQVIAEKVGPNIITELRIFGPQAPSWRKGPLHVKGRGPRDTYG”, for which the “soluble on expression in E. coli” value was “not soluble”.
“MSSIQGYKMKEYSMPTKRYCQTLSLKNNPILIEEYRKIHSEEKAWPEIRAGIRAVGILEMEIYILGSQLFMIIETPLDFDWEIAMDKLSNLPRQAEWEKYVSKFQDCPYLSSSAEKWKLMERMFYLYED”: the “soluble on expression in E. coli” value is “not soluble”.
On to “MSLESRPLHVVLGNEACDLDSTVSALALAFYLAKTTEAEEVFVPVLNIKRSELPLRGDIVFFLQKVHIPESILIFRDEIDLHALYQAGQLTLILVDHHILSKSDTALEEAVAEVLDHRPIEPKHCPPCHVSVELVGSCATLVTERILQGAPEILDRQTAALLHGTIILDCVNMDLKIGKATPKDSKYVEKLEALFPDLPKRNDIFDSLQKAKFDVSGLTTEQMLRKDQKTIYRQGVKVAISAIYMDLEAFLQRSNLLADLHAFCQAHSYDVLVAMTIFFNTHNEPVRQLAIFCPHVALQTTICEVLERSHSPPLKLTPASSTHPNLHAYLQGNTQVSRKKLLPLLQEALSAYFDSMKIPSGQPETADVSREQVDKELDRASNSLISGLSQDEGHHHHHH”, for which the “soluble on expression in E. coli” value is “not soluble”.
Regarding “MSLTKVSAFFSTCKAGVFLGWDRNIDTSIAYTDGYSNRLDIISYDLCNWNGNNDSSSISWDSASTIRDLQKPNIPLIKQYKGPYAHLIKNVIISAHMPCPTGGTSNGSISPQDFATLANTKIQDINSSSPWFLQNYKAIVSKVGDGLEYYGHVGTVYFRPFHEVNGNWFWWGDKDVSQYKQLWINLHDYLVSKNSGCRGLTWLKFCYAPNSGKNAALYYPGDDYVDMVGMDAYSDNPSTDTYVKRAYAELTGGTYNGVTYPGIDKPFGFPELGPNVGGDYVDNKNRLIKKFDYKRWSDAIKLNYPKASYFIIWNGGYEPRNNDNGTSLFNMSYEGHHHHHH”, the “soluble on expression in E. coli” value was “soluble”.
In the case of “MSLSLDQESIEHDLKLTSEEIFHSNGKYIPPMLNTLGQHLSVRKEFFQNFLTFVAKNFNYKISPELKLDLIEKFEILNCCIKFNSIIRQSDVLNDIWEKTLSNYNLTQNEHLTTKTVVINSPDVFPVIFKQFLNHVVFVLFPSQNQNFKLNVTNLINLCFYDGILEEGEKTIRYELLELDPMEVDTSKLPWFINFDYLNCINQCFFDFTFACEEEGSLDSYKEGLLKIVKILYYQFNQFKIWINTQPVKSVNANDNFININNLYDDNHLDWNHVLCKVNLKEQCIQIAEFYKDLSGLVQTLQTLDEGHHHHHH”, the “soluble on expression in E. coli” value is “not soluble”.
In the case of “MTEAEILRLIRRVSGISQQADEQTTQPDSVTAENYARVVAEVMRRDGIQLNDADMRDIRIRVLEMLAYNRRVELYREKEKITYHWKKPERLRR”, the “soluble on expression in E. coli” value is given as “not soluble”.
Next, “MEINVDQINLMTKKGLRGDLKNFESVLDFLEKYGNATIVKYGMYSLVFQIAMNKFIDISKECEECGGKCCQIGYPVPVYGFDYEELRNKLSMEDLKKLEKVDSNLFLLRRPCKFQKGWYCSIHKFKPYACLSYPFATEDEQRDAINSYDGKGIPDLEHHHHHH”: “not soluble”; “MHDRASQMVIFYALAKAGSFTAAAKQMGVSTSHVSKQLGALEETLNLKLVHRTTRSLILTDAGQQFFLYCETIYNAMTEASAIMDDERDEVAGILRLGLSQSFGTMHIIPAIDKLRNQYPDLQVEVRLFDHQADMLKDGLDLWVTNFEDLPEGYVAQRLADSNFVLAASPDYLIDKKVPHHPLDLVEHNCLTYQSRYRDYSNWDFSKGNESLCVKVSGNYRVDLAEAVRDATISGWGIAYLASYLLTNEFNDGKLIQLLPGWKASQKMPIYAVYPSRKHLPRKISAVIDFLREHIGQPPYWDKALMKRVKL”: “soluble”.
On to “MGSDKIHHHHHHMKMKEFLDLLNESRLTVTLTGAGISTPSGIPDFRGPNGIYKKYSQNVFDIDFFYSHPEEFYRFAKEGIFPMLQAKPNLAHVLLAKLEEKGLIEAVITQNIDRLHQRAGSKKVIELHGNVEEYYCVRCEKKYTVEDVIKKLESSDVPLCDDCNSLIRPNIVFFGENLPQDALREAIGLSSRASLMIVLGSSLVVYPAAELPLITVRSGGKLVIVNLGETPFDDIATLKYNMDVVEFARRVMEEGGIS”, for which the “soluble on expression in E. coli” value is on record as “not soluble”.
Next, “MTKIGINGFGRIGRNVFRAALNNSEVEVVAINDLTDAKTLAHLLKYDTVHGTLNAEVSANENSIVVNGKEIKVIAERDPAQLPWSDYGVEVVVESTGRFTKKSDAEKHLGGSVKKVIISAPASDEDITVVMGVNHEQYDAANHNVVSNASCTTNCLAPFAKVLNEKFGVKRGMMTTIHSYTNDQQILDLPHKDLRRARAAAENMIPTSTGAAKAVALVLPELKGKLNGGAVRVPTANVSLVDLVVELDKEVTVEEVNAAFKAAAEGELKGILGYSEEPLVSIDYNGCTASSTIDALSTMVMEGNMVKVLSWYDNETGYSNRVVDLAAYMTSKGL”: “soluble”.
The entry for “HQRWHKKASVLIYGAGSSGRQLATALSQGPEYHAVAFIDDYKALQGQIIQGIPVYSPEEISHVVERKTVQKILLAIPSASRARRKQVLAKIDCLGIQVLTIPGMADIVEGKAKLEEFKDVGVEDLLGRDSVEPKPELMNADIAD” is “not soluble”; for “MAHHHHHHMQEVMQKALAGRYDPLPPTISPEMTEVVTSLLCGDPHARPSSSKLLNMPICKLFVSGLLEIVQTQPSFAGPLRDTISTHIQSVKQSLKEERRVTVRQMEESQSAAAASTTILEGATPMGSVGDLTLYEGIVKKQSGDLAWKRRYLCIRGALEEGERLDVGRMPKFKSLDLVLAVSKETMRQQCITTPFSELEDVFPVASKYTGSNAQHVFAVAFKTGRRLLFQARGDPERDAWMQKIQQTLGIDEAD” it is “not soluble”; for “MTKDQRRSLTKKALLDALVICLKDQDFNEITTIRLVQTAGISRSSFYTHYKDKFEMIDSYQKELFHKLEYIFDKYEGKKEGAFLEIFEILTREKLLSALLSTNGAKEIQDFLINKLQRMIAKDFIDPTAEKRALKGFEKDYASIYLAHAIFGACQAWIKNGKKESPQEMTDFLLRFIPQ” it is “not soluble”.
For “MDKMVSYLFKGEVKNPYVFLVLGKDKEIEHTVRTDVIVVGVLDWKKGNLSFVSIPRDLMIEGKKINAIYNTYGMEKLFQIIESLLGQKPDSYVIFNYEAFKILVDELGPIEVIPNEVMFYEDLSQNLVIDFKPGVPYKLNGEQLLAYIRYRKDSMGDLARIERQKDVLKKLLSKALSRNPLEISVLYKKISPYIETDIGLPEILTLFSKLKNSVRVSFSTLPYNVDSDGSIFVDEKRLVSFKENLIGSSVQEKYRVNFLVVNTSSLVSRVFEANLRGVWKDRVGFEPDRVVWEDVGISQKFEGDHVFIGEPEKEDYILEILRKAHPSRHFTVHRFDRPEDYTMYYTILESLAKNRIYPDFPVSALILIDDFRELEHHHHHH”, the “soluble on expression in E. coli” value is listed as “soluble”.
“MKIGFIGAGKMAQALARGLINSGRITADNIIASSPKRDEVFLDQCKALGLNTTHDNAEVVQKSDVVFLAVKPVHVSKVASEIAPALSKEHLVVSIALGITIRNIESLLPTKSRVVRVMPNTPSVVRAGASAFAMGSACRDGDAETVEKLLSTVGFAVEVPEIHIDPVTGLSGSGPSYMFAVIEGLADGGVKVGLPRDLALKLAAYTLLGAAKMVLETGIHPAQLKDDVQSPAGSSVYGMHKLESGGLKGVLMDAVEAATNRSRATGDKALPRDFRNTEM”: the “soluble on expression in E. coli” value was “not soluble”.
The entry for “MISAIILSGGKAERMGGEKSFRKSGNKYLIENIADMLIEMEIPFVTVFKNPRFMEKPEEEIEKQLYYYKKYHQTITWDFVPGMGPLIGMLSGMLNTKSQWVFLVPCDMPFITEESIINLLSFIKEAELNGYDCIVPKHKNGFIEPLFSLYHISSVNVLGMVVEEMLEQNRSFPIRRLIDELNPLYVDVDKIDKTCDIFINLNTLKELENACFDRLEHHHHHH” is “soluble”.
Take “MTLMKSNLIAAAEIDRLDTWAKYTAPMCGSCMSSCCTLPVEVKIKDLIRIGIVDEFERGEPAKNIAKRLQKEGIVERYNQKSEIFTLQRMSNNDCLYLDRKSRLCTIYDKRPDTCRNHPKIGPRPGYCAYKPKPQVRPTNTSSRTLERFLEHHHHHH”: the “soluble on expression in E. coli” value is given as “not soluble”.
For the sequence “MHAILNTFKSGVGDCVFMRLIKDDATFSIMIDCGKYTPEINLFIKEKLHKHIDLLIVTHIDDDHINGVCEMLIAMPEITIGKIFYNCYQLLSGEKIAALTKIVSSDIEILTQNLPKQRTDTNGKINMEHASVLASILLKNPQWNSAWEKTFYIENSLEPYPLGDGLGQLVFISPTSSELKTLDMNFAREYLRLTRHEVINAPFEGRETLFELVSRLVSMKIREREYVKKQKIAGLIDKYSVERWKKAKDFEPSGITDENKGSIAFIWEYKDTKVLFMGDAEPDIVKTAIVNKYGKVDNMKAIKVSHHGSKHSTSKELMEVIDSFDYFITGGSVGDKPSMETLVKIVDRGDNKVRTIHYNYDRNILMKDMASDESVELRQKYNFQIDTNNELEFEY”, the “soluble on expression in E. coli” value was “not soluble”.
“MEQEAERRRQPQIKQEPESEEEEEEKQEKEEKREEPVEEEEEPEQKPCLKPTLRPISSAPSVSSASGNATPNTPGDESPCGIIIPHENSPDQQQPEEHRPKIGLSLKLGASNSPGQPNSVKRKKLPVDSVFNKFEDEDSDDVPRKRKLVPLDYGEDDKNATKGTVNTEEKRKHIKSLIEKIPTAKPELFAYPLDWSIVDSILMERRIRPWINKKIIEYIGEEEATLVDFVCSKVMAHSSPQSILDDVAMVLDEEAEVFIVKMWRLLIYETEAKKIGLVK”: the “soluble on expression in E. coli” value was “soluble”.
For the sequence “MAHHHHHHMSTYANSQARLNRVAPQLRPAGVHGDWTEATMAELLSSYNPNGIITPDHIRSFHHRGCDVGEQRRHWGLAKDAPVDPNMRHGVKGKETGGADACLRPEMYADKMTALLDAQLESQYLSNRRKPLGHAPVPRDPVPVPFGGFGITQKKGDSTQSVLAGYRSVDVLHPAGEQLTRNYDWEKAGIDPTQHRFGKPSARSDGTTAAALFNDSATQLTSKLAKDYETTVAKELGKSKRYGFDDPAEWDEEKRGSVTKFGATGTAASYFQTEQPTVRELLSSWAQTASGPRADKAASGKAGQQGLTGSADSAVTAKADASAAAPVASGPSLTEPLKDEARAHQLLYPCHYVSLGVESKYFAGGRPLEDIRRLCHKCSFGLSDADIDAVFVLVAKGGSTCSIEEFKNAARARGYM”, the “soluble on expression in E. coli” value is on record as “not soluble”.
Next, “ENAIIGVNDHTLVTESDGRRWVTREPAIVYFHKKYWFNIIAMIRDNGTSYYCNMASPYYLDEEALKYIDYDLDVKIFTDGEKRLLDVEEYERHKRKMNYS”: “not soluble”; “MKKALLVVSFGTSYHDTCEKNIVACERDLAASCPDRDLFRAFTSGMIIRKLRQRDGIDIDTPLQALQKLAAQGYQDVAIQSLHIINGDEYEKIVREVQLLRPLFTRLTLGVPLLSSHNDYVQLMQALRQQMPSLRQTEKVVFMGHGASHHAFAAYACLDHMMTAQRFPARVGAVESYPEVDILIDSLRDEGVTGVHLMPLMLVAGDHAINDMASDDGDSWKMRFNAAGIPATPWLSGLGENPAIRAMFVAHLHQALNMAVEEAA”: “soluble”.
For the sequence “MAHHHHHHMDLFNCQYCSISPFDYILDYLYGDTSSKKEEKKKKSNITYDDSSSNNVSQVVSKIDEEIEKRTTNEILLLCRAWENYVHPRAKEYWKDSQQLQNILCKIANGITKNDDPILGDDYACVFWYGDKNKNDNCPIISVKKGNDNIETITYVNRVLIFLYADEASFQELQKKPKKAFTMACGNTNCINLTHISLDD”, the “soluble on expression in E. coli” value was “not soluble”.
